Test [1] concerns the target T1, S蛋白RBD-His (319Arg-532Asn) (2019-nCoV (SARS-CoV-2), UniProt P0DTC2 319-532).
Test [2] concerns the target T1, S蛋白RBD-His (319Arg-532Asn). In words: BLI (Fortebio), RBD-His on Anti-Penta-HIS sensor, antibody in solution. (In general: Biolayer interferometry detects binding as a change in optical thickness at a sensor tip.)

B1: 候选抗体P16-A3 (全长人IgG1, κ轻链) (antibody, V domains shown)
VH: QVQLVESGGGVVQPGRSLRLSCAASGFTFSSYGMHWVRQAPGKGLEWVAVISYDGSNKYYADSVKGRFTISRDNSKNTLYLQMNSLRAEDTAVYYCARAYSSSWLLQSFYYYGMDVWGQGTTVTVSS
VL: NIQLTQSPVSLSASVGDRVTLTCRASQGIGYSLVWYQKKPGTAPKLLIFDASTLQSGVPSRFSGSGSGTDFTLTISSLQPEDSATYYCQQVIHYPLTFGGGTKVEIK
As to B1, half-maximal inhibition in test [1] (IC50) required 7.7 nM. Further, in test [2], binding was characterised by a dissociation constant (Kd) of 0.415 nM; the koff (as a rule, the rate constant with which the complex falls apart) is 7.17e-05 s⁻¹; the on-rate constant (kon) (in general, a measure of how fast the partners come together) was determined as 173000 M⁻¹ s⁻¹.

(Values after patent CN111690058A (SANYOU BIO INC; SHANGHAI ZJ BIO TECH CO LTD, dated 2020).)
